Laboratory results reported in patent US20230058519A1 (SHANGHAI CELL THERAPY GROUP, published 2023).
Values belong to the binder of their own block, whether it stands above or below them.

Experiments:
EGFR expressed on cells [1] = target: T1, EGFR expressed on cells (UniProt P00533 25-1210, limits assumed); assay: flow cytometry on 293T-EGFR cells; unit taken from the axis 'Conc.(nM)'
T1 construct: whole, on cells; also called HEK293T-EGFR cell line; EGFR over-expressing cells

[2] = target: mesothelin (MSLN) expressed on cells (UniProt Q13421); assay: flow cytometry on 293T-MSLN-Full cells; unit taken from the axis 'Conc.(nM)'
BCMA expressed on cells = target: T2, BCMA expressed on cells (UniProt Q02223 1-184, limits assumed); assay: flow cytometry on CHOK1-BCMA cells; unit taken from the axis 'Concentration (nM)'
T2 construct: whole, on cells; also called CHOK1-BCMA cell line; BCMA over-expression cell line
T2 sequence (looked up): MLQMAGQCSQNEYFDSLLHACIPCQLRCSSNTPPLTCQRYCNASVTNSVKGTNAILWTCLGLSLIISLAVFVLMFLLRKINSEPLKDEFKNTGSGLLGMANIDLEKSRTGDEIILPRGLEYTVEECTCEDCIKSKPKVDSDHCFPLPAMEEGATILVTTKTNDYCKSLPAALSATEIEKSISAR

BCMA-His antigen = target: T3, BCMA-His antigen (UniProt Q02223 1-54); assay: SPR as in Example 2, BCMA-His antigen
T3 construct: also called BMCA antigen
T3 sequence (looked up): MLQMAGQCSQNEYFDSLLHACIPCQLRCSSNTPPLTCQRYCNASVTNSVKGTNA

EGFR His antigen = EGFR His antigen (UniProt P00533 25-645); assay: SPR as in Example 2, EGFR His antigen
EGFR expressed on cells [3] = target: T1, EGFR expressed on cells; assay: flow cytometry on HEK293T-EGFR cells (cell line from paragraph 185); unit taken from the axis 'Concentration (nM)'

Sequence of mesothelin (MSLN) expressed on cells (Q13421 other isoform, or with tags, fused parts or gaps limits assumed): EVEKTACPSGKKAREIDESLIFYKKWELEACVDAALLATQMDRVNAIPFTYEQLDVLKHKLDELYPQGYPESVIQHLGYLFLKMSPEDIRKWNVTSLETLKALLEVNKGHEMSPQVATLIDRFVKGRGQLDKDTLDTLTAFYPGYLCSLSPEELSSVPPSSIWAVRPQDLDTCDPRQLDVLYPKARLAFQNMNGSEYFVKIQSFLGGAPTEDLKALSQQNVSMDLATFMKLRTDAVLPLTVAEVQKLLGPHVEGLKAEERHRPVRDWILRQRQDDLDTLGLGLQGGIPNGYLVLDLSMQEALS

EC50 (EGFR expressed on cells [1]): 28.6 nM
EC50 [2]: 35.6 nM
B1: TCP021-P (bispecific antibody)
chain: QLQLGASGGGLVQPGGSLRLSCALSGFTLRELDEFAIGWFRQAPGKEREGVSCISGTGGITHYADSVKGRFTISRDIAKTTVYLQMNSLNSEDTAVYYCAADERCTDRLIRPPTYWGQGTQVTVSSGGGGSGGGGSGGGGSQVQLVESGGGLVQPGGSLNLSCAASGFDFSSVTMSWHRQSPGKERETVAVISNIGNRNVGSSVRGRFTISRDNKKQTVHLQMDNLKPEDTGIYRCKAWGLDLWGPGTQVTVSSGGGGSEQKLISEEDLGGGGSHHHHHH
notes: also called EGFR-TCP; anti-M-ICAP VHH (M2339) - 3xGGGGS linker - anti-EGFR VHH (E454(VHH)) - Myc and HIS

EC50 (BCMA expressed on cells): 1.68 nM
Kd (BCMA-His antigen): 0.125 nM
koff (BCMA-His antigen): 0.000365 s⁻¹
kon (BCMA-His antigen): 2.92e+06 M⁻¹ s⁻¹
B2: B029(VHH), hFc fusion (Fc fusion)
chain: QVQLVESGGGLVQPGGSLRLSCAASGSITSIYAIGWYRQAPGKLRELVAAITTSGNTFYRDSVKGRFTISRDNAKNTVSLQMNSLKSEDTAVYDCNGAPWGDHAPLVVSWDQGTQVTVSS
notes: not shown: human Fc

Kd (EGFR His antigen): 1.27 nM
koff (EGFR His antigen): 2.48e-05 s⁻¹
kon (EGFR His antigen): 19500 M⁻¹ s⁻¹
EC50 (EGFR expressed on cells [3]): 6.51 nM
B3: E454(VHH), hFc fusion (Fc fusion)
chain: QVQLVESGGGLVQPGGSLNLSCAASGFDFSSVTMSWHRQSPGKERETVAVISNIGNRNVGSSVRGRFTISRDNKKQTVHLQMDNLKPEDTGIYRCKAWGLDLWGPGTQVTVSS
notes: also called anti-EGFR VHH (E454(VHH)); not shown: human Fc
